Source: PMC8303780, “Mutational Analysis of Redβ Single Strand Annealing Protein: Roles of the 14 Lysine Residues in DNA Binding and Recombination In Vivo”

How the values were obtained:
Conditions in all cases: protein: recombinant, tags: 6xHis removed by thrombin, residual N-terminal GSH
Redβ K69A = target: T1, Redβ K69A (bacteriophage λ, UniProt P03698 1-261, K69A); test: EMSA; PBS; enhanced vs WT; Anisotropy: 50 mM Tris-HCl pH 7.5, 1 mM DTT, 0.1 mg/mL BSA, 10 nM FAM48, 23 °C (Kd per monomer); gel assay: 10 µM Redβ, 50 µM nt of each oligo, PBS, 37 °C, 1% agarose at 22 °C
T1 sequence: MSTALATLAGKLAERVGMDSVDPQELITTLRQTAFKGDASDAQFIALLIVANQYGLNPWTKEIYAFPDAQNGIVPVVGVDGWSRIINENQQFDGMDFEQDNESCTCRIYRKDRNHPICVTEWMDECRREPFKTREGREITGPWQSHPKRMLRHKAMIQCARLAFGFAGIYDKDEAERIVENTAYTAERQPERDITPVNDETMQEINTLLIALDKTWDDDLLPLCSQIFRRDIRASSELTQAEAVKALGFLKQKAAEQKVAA

Redβ K154A = target: T2, Redβ K154A (bacteriophage λ, UniProt P03698 1-261, K154A); test: EMSA; PBS; Anisotropy: 50 mM Tris-HCl pH 7.5, 1 mM DTT, 0.1 mg/mL BSA, 10 nM FAM48, 23 °C (Kd per monomer); gel assay: 10 µM Redβ, 50 µM nt of each oligo, PBS, 37 °C, 1% agarose at 22 °C
T2 sequence: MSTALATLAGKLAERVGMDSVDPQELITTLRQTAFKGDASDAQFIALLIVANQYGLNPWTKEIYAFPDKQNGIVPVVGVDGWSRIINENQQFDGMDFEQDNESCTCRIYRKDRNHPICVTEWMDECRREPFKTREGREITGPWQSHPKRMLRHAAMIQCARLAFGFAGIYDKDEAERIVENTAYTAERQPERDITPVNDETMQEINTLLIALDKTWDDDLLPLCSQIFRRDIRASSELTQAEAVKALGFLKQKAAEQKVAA

Redβ K172A = target: T3, Redβ K172A (bacteriophage λ, UniProt P03698 1-261, K172A); test: as above
T3 sequence: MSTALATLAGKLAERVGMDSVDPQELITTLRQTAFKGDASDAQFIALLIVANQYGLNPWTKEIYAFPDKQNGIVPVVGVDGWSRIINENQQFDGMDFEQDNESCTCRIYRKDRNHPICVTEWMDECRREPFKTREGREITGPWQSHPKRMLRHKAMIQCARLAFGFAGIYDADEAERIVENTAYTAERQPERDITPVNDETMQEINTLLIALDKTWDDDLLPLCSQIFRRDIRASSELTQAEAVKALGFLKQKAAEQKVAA

Redβ K61A = target: T4, Redβ K61A (bacteriophage λ, UniProt P03698 1-261, K61A); test: as above
T4 sequence: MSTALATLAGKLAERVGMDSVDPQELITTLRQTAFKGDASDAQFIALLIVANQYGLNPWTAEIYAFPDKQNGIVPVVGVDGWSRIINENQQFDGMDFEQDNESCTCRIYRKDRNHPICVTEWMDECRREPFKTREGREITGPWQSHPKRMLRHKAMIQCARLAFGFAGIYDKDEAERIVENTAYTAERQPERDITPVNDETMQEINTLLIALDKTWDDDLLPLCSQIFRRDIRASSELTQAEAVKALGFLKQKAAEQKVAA

Redβ K148A = target: T5, Redβ K148A (bacteriophage λ, UniProt P03698 1-261, K148A); test: as above
T5 sequence: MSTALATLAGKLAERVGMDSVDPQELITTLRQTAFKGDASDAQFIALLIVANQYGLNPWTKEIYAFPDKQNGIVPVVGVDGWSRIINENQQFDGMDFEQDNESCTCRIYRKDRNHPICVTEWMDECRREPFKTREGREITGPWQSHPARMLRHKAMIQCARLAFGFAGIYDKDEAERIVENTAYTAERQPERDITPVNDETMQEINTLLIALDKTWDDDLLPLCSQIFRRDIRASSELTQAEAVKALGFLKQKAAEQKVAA

Redβ K111A = target: T6, Redβ K111A (bacteriophage λ, UniProt P03698 1-261, K111A); test: as above
T6 sequence: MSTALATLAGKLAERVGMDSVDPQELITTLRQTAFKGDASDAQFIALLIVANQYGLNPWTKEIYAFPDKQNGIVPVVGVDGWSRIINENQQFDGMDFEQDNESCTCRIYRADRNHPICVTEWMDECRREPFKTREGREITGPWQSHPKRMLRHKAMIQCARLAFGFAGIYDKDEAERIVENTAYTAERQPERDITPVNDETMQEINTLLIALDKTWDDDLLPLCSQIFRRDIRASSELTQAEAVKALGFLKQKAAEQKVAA

Redβ K132A = target: T7, Redβ K132A (bacteriophage λ, UniProt P03698 1-261, K132A); test: as above
T7 sequence: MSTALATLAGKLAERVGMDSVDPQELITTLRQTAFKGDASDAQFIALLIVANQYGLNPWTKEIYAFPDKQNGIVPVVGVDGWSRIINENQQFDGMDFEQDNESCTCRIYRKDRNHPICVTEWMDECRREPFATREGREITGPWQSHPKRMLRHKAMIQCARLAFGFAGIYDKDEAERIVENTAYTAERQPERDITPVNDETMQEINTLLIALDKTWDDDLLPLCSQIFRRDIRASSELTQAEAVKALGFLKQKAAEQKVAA

**Q.** What does the source list for CCATCCGCAAAAATCGAGCTATGCAGGGCGATTCTGCTCTAAGCCATCCG (ssDNA) [Cy5 50-mer ssDNA]?
**A.** binding result (Redβ K69A; label: 5'-Cy5): binds; binding result (Redβ K154A; label: 5'-Cy5): no binding; binding result (Redβ K172A; label: 5'-Cy5): no binding; binding result (Redβ K61A; label: 5'-Cy5): no binding; binding result (Redβ K148A; label: 5'-Cy5): no binding; binding result (Redβ K111A; label: 5'-Cy5): no binding; binding result (Redβ K132A; label: 5'-Cy5): no binding

**Q.** Does GCGGATGGCTTAGAGCAGAATCGCCCTGCATAGCTCGATTTTTGCGGATG (ssDNA) [Cy3 50-mer ssDNA] bind (Redβ K69A; label: 5'-Cy3)?
**A.** binds

**Q.** Does GCGGATGGCTTAGAGCAGAATCGCCCTGCATAGCTCGATTTTTGCGGATG (ssDNA) [Cy3 50-mer ssDNA] bind (Redβ K154A; label: 5'-Cy3)?
**A.** no binding

**Q.** Does GCGGATGGCTTAGAGCAGAATCGCCCTGCATAGCTCGATTTTTGCGGATG (ssDNA) [Cy3 50-mer ssDNA] bind (Redβ K172A; label: 5'-Cy3)?
**A.** no binding

**Q.** Does GCGGATGGCTTAGAGCAGAATCGCCCTGCATAGCTCGATTTTTGCGGATG (ssDNA) [Cy3 50-mer ssDNA] bind (Redβ K61A; label: 5'-Cy3)?
**A.** no binding

**Q.** Does GCGGATGGCTTAGAGCAGAATCGCCCTGCATAGCTCGATTTTTGCGGATG (ssDNA) [Cy3 50-mer ssDNA] bind (Redβ K148A; label: 5'-Cy3)?
**A.** no binding

**Q.** Does GCGGATGGCTTAGAGCAGAATCGCCCTGCATAGCTCGATTTTTGCGGATG (ssDNA) [Cy3 50-mer ssDNA] bind (Redβ K111A; label: 5'-Cy3)?
**A.** no binding

**Q.** Does GCGGATGGCTTAGAGCAGAATCGCCCTGCATAGCTCGATTTTTGCGGATG (ssDNA) [Cy3 50-mer ssDNA] bind (Redβ K132A; label: 5'-Cy3)?
**A.** no binding
